Laboratory results published in US20250376539A1 (KIRA PHARMACEUTICALS SUZHOU, published 2025).
Substitutions are numbered along the chain they refer to.

T1: recombinant human complement C2 (NP_000054.2), C-terminal 6His-tag, made in house (CHO cell expression) (human, UniProt P06681 21-752)
T1 construct: a linker before the tag is not described; also called human C2; Human C2
T1 sequence: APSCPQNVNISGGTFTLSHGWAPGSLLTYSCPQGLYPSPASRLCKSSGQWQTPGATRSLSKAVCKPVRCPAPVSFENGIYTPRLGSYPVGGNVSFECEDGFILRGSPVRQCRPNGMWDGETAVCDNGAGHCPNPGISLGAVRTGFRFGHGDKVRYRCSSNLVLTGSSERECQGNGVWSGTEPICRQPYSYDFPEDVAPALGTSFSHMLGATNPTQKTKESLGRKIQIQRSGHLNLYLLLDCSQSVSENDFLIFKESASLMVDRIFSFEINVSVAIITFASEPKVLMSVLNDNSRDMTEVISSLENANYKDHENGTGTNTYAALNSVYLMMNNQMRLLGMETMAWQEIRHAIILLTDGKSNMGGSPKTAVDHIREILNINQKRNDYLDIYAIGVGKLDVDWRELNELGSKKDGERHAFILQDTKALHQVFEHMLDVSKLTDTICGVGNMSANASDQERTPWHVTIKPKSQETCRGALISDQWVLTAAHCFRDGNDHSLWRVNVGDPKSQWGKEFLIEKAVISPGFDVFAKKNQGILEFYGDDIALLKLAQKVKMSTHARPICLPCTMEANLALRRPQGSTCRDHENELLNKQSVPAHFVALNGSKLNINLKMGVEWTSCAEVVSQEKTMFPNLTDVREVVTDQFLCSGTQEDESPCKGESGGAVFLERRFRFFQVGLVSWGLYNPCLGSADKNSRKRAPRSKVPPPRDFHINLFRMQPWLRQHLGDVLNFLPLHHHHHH

T2: recombinant cynomolgus (cyno) complement C2 (XP_005553508.1), C-terminal 6His-tag, made in house (CHO cell … (cynomolgus monkey (Macaca fascicularis), UniProt P06681 21-752 (human entry)))
T2 construct: also called cyno C2; Cyno C2
T2 chain: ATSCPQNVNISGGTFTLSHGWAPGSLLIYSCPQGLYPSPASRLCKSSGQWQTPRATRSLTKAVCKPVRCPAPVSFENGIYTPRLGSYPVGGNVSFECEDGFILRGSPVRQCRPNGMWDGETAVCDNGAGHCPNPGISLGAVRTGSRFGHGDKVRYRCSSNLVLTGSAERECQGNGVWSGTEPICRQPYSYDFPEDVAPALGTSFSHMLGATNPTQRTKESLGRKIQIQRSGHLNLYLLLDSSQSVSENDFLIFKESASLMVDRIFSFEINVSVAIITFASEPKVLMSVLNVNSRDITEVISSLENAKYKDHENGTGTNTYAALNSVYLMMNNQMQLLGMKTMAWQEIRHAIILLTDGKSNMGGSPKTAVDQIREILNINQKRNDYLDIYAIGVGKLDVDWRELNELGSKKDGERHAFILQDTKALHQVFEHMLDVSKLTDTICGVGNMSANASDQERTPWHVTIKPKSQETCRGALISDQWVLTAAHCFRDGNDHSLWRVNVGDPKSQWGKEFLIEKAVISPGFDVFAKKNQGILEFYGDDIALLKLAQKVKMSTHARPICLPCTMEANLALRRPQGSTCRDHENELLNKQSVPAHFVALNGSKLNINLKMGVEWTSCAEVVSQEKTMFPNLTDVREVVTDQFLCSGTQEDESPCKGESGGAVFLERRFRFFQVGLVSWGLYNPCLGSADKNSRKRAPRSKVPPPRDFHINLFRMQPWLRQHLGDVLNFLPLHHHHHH

T3: recombinant cyno C2a, C-terminal 6His-tag, made in house (CHO cell expression) (cynomolgus monkey, UniProt P06681 244-752 (human entry))
T3 chain: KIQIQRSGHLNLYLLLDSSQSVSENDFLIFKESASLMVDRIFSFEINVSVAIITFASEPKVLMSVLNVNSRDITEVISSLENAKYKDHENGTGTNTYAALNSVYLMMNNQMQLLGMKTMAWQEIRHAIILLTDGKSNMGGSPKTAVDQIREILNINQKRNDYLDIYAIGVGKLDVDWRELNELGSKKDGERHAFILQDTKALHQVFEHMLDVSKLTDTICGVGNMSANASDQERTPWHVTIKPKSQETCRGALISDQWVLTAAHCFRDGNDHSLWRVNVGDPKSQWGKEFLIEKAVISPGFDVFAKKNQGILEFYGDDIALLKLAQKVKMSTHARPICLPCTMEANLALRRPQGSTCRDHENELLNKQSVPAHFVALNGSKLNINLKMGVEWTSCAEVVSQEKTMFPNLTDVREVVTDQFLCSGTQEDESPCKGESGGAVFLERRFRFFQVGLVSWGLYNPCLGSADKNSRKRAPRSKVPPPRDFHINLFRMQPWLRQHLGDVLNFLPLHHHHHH

T4: recombinant human C2a, C-terminal 6His-tag, made in house (CHO cell expression) (human, UniProt P06681 244-752)
T4 sequence: T3 chain with S18C, V68D, I73M, K84N, Q112R, K117E, Q148H

B1: anti-C2 antibody 34.5 (antibody, IgG4, V domains shown)
VH: QVQLQESGPGLVKPSQTLSLTCTVSGGSISRGGHQWTWIRQHPGKGLEWIGYIHHSGSTYYNPSLNDRLTILVDTPKNQFSLKLSSVTAADTAVYYCARWNLGSYGDYWGQGTLVTVSS
VL: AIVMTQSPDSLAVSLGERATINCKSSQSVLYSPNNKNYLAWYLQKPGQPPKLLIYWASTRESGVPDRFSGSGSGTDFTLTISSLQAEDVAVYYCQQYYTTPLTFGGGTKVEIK
notes: Recombinant
B2: anti-C2 antibody 199.1 (antibody, IgG4, V domains shown)
VH: B1 VH with T37S, H42N, G44E, D67N
VL: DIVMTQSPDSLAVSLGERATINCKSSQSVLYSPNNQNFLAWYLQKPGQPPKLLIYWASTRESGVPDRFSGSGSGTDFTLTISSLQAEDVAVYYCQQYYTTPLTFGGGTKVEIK
notes: Recombinant
B3: 3.2 H2-10 × L1-2 (antibody, V domains shown)
VH: EVQLLESGGGLVQPGGSLRLSCAASGFTFRHYAMSWVRQAPGKGLEWVSLISGSGASTHYADSVKGRFTISRDNSENMLYLQMNSLRAEDTAVYYCAKDSLAVAGSEYFQHWGQGTLVTVSS
VL: SYVLTQAPSVSVAPGQTARITCGHNYFGGKSVHWYQQRPGQAPVLVVYDDSDRPSGIPERFSGSKSGNTATLAISRVEAGDEAAYYCQVYDTSSDHWVFGGGTKLTVL
notes: Histidine mutant of 3.2
B4: anti-C2 antibody 48.14 (antibody, IgG4, V domains shown)
VH: B3 VH with T28K, R30S, H31Y, A56Y, H59Y, Y60F, E76K, M78T, L101I
VL: SYVLTQPPSVSVAPGQTARITCGGDNIGGKSVHWYQQKPGQAPVLVVYDDSDRPSGIPERFSGSDSGNTATLTISWVEAGDEADYYCQVWDDSSDHWVFGGGTKLTVL
notes: Recombinant
B5: 3.2 H2-10 × L1-5 (antibody, V domains shown)
VH: B3 VH
VL: B3 VL with H24G, F27H
notes: Histidine mutant of 3.2
B6: 3.2 H2-10 × L3-4 (antibody, V domains shown)
VH: B3 VH
VL: B3 VL with H24G, D91H
notes: Histidine mutant of 3.2
B7: 3.2 H2-10 × L2-7 (antibody, V domains shown)
VH: B3 VH
VL: B3 VL with H24G, S55H
notes: Histidine mutant of 3.2
B8: 3.2 H2-10 × L3-6 (antibody, V domains shown)
VH: B3 VH
VL: B3 VL with H24G, S93H
notes: Histidine mutant of 3.2
B9: 3.2 H2-10 × L3-5 (antibody, V domains shown)
VH: B3 VH
VL: B3 VL with H24G, T92H
notes: Histidine mutant of 3.2
B10: 3.2 H2-10 × L1-10 (antibody, V domains shown)
VH: B3 VH
VL: B3 VL with H24G, V32H
notes: Histidine mutant of 3.2
B11: 3.2 H2-10 × L3-7 (antibody, V domains shown)
VH: B3 VH
VL: B3 VL with H24G, S94H
notes: Histidine mutant of 3.2
B12: 3.2 H2-10 × L1-4 (antibody, V domains shown)
VH: B3 VH
VL: B3 VL with H24G, Y26H
notes: Histidine mutant of 3.2
B13: 3.2 H2-10 × L3-11 (antibody, V domains shown)
VH: B3 VH
VL: B3 VL with H24G, V98H
notes: Histidine mutant of 3.2

Assays:
[1] = molecular target: T1, recombinant human complement C2 …; assay: ELISA
[2] = molecular target: T2, recombinant cynomolgus (cyno) …; assay: ELISA
[3] = molecular target: T3, recombinant cyno C2a, C-terminal …; assay: ELISA on cyno C2a, OD450nm against log Ab conc. (nmol/L)
[4] = molecular target: T4, recombinant human C2a, C-terminal …; assay: ELISA on human C2a, OD450nm against log Ab conc. (nmol/L)
[5] = molecular target: T1, recombinant human complement C2 …; assay: binding kinetics, neutral pH (BLI presumed)
[6] = molecular target: T1, recombinant human complement C2 …; assay: BLI (Gator); ratio of dissociation at pH 5.8 to pH 7.4
Protocol: (§1) The histidine mutant constructs in Table 4 were tested for their pH-dependent dissociation from human C2. Probe-immobilized anti-C2 antibodies were incubated with C2 at pH 7.4 for 600s, followed by a 600s dissociation period in K Buffer at pH 7.4 or pH 5.8. The data were processed and analyzed by the Gator evaluation software.

[7] = molecular target: T1, recombinant human complement C2 …; assay: BLI (Gator), antibody on probe; 600 s association at pH 7.4, 600 s dissociation at pH 5.8
Protocol: as §1

[8] = molecular target: T1, recombinant human complement C2 …; assay: BLI (Gator), antibody on probe; 600 s association at pH 7.4, 600 s dissociation at pH 7.4
Protocol: as §1

Binder	EC50 [1] [nM]	EC50 [2] [nM]	binding result [3]	binding result [4]	Kd [5] [nM]	koff [5] [s⁻¹]	kon [5] [M⁻¹ s⁻¹]	Fold dissociation pH 5.8/pH 7.4 [6] [fold]	Dissociation (%) pH 5.8 [7] [%]	Dissociation (%) pH 7.4 [8] [%]
B1	0.0512	0.0521	no binding (tested: 100 nmol/L)	no binding (tested: 100 nmol/L)	–	–	–	–	–	–
B2	0.0479	0.05	no binding (tested: 100 nmol/L)	no binding (tested: 100 nmol/L)	–	–	–	–	–	–
B3	–	–	–	–	0.33	9.39e-05	284000	11.1	56.5	5.1
B4	0.0514	0.0682	no binding (tested: 100 nmol/L)	no binding (tested: 100 nmol/L)	–	–	–	–	–	–
B5	–	–	–	–	0.41	0.000112	272000	10.4	66.7	6.42
B6	–	–	–	–	–	–	–	6.2	82.8	13.3
B7	–	–	–	–	–	–	–	9.8	52.7	5.39
B8	–	–	–	–	0.42	0.000119	283000	9	68.7	7.61
B9	–	–	–	–	–	–	–	7.2	90.7	12.6
B10	–	–	–	–	0.329	8.72e-05	265000	10.4	56.6	5.45
B11	–	–	–	–	–	–	–	8.6	60	7
B12	–	–	–	–	0.28	8.18e-05	293000	9.5	55.8	5.9
B13	–	–	–	–	–	–	–	8.7	62.6	7.16
